Consider ten molecules from US12104181B2, “Compositions and methods for treating viral infections targeting TRIM7” (THE BOARD OF REGENTS OF THE UNIVERSITY OF TEXAS SYSTEM, priority 2021, dated 2024).

In this assay the test system is coxsackievirus B3 (CVB3-GFP). In kind it is cell-based. The conditions noted are these: HeLa cells, replicate R1; for Percent Infected R1: GFP-positive cells within RFP-positive gate.

“And” between values parts separate entries of the source, which are not always exact repeats. Equal values may be shown once.

B1: RNF212: human RING type E3 ligase expressed from lentiviral vector (protein, UniProt Q495C1 1-297, looked up)
Probable E3 SUMO-protein …: MANWVFCNRCFQPPHRTSCFSLTNCGHVYCDACLGKGKKNECLICKAPCRTVLLSKHTDADIQAFFMSIDSLCKKYSRETSQILEFQEKHRKRLLAFYREKISRLEESLRKSVLQIEQLQSMRSSQQTAFSTIKSSVSTKPHGCLLPPHSSAPDRLESMEVDLSPSPIRKSEIAAGPARISMISPPQDGRMGPHLTASFCFIPWLTLSKPPVPGECVISRGSPCFCIDVCPHWLLLLAFSSGRHGELTNSKTLPIYAEVQRAVLFPFQQAEGTLDTFRTPAVSVVFPLCQFERKKSF
With B1, the “Percent Infected R1” value was 91.1% and the “Z score R1” value came to 0.03.

B2: TRIML1: human RING type E3 ligase expressed from lentiviral vector (protein, UniProt Q8N9V2 1-468, looked up)
Probable E3 ubiquitin-protein …: MSTADLMENLREELTCFICLDYFSSPVTTECGHSFCLVCLLRSWEEHNTPLSCPECWRTLEGPHFQSNERLGRLASIARQLRSQVLQSEDEQGSYGRMPTTAKALSDDEQGGSAFVAQSHGANRVHLSSEAEEHHREKLQEILNLLRVRRKEAQAVLTHEKERVKLCQEETKTCKQVVVSEYMKMHQFLKEEEQLQLQLLEQEEKENMRKLRNNEIKLTQQIRSLSKMIAQIESSSQSSAFESLEEVRGALERSEPLLLQCPEATTTELSLCRITGMKEMLRKFSTEITLDPATANAYLVLSEDLKSVKYGGSRQQLPDNPERFDQSATVLGTQIFTSGRHYWEVEVGNKTEWEVGICKDSVSRKGNLPKPPGDLFSLIGLKIGDDYSLWVSSPLKGQHVREPVCKVGVFLDYESGHIAFYNGTDESLIYSFPQASFQEALRPIFSPCLPNEGTNTDPLTICSLNSHV
Consider B2, for which the “Percent Infected R1” value is recorded as 77.6% and the “Z score R1” value is recorded as −0.14.

B3: RNF122: human RING type E3 ligase expressed from lentiviral vector (protein, UniProt Q9H9V4 1-155, looked up)
RING finger protein 122: MHPFQWCNGCFCGLGLVSTNKSCSMPPISFQDLPLNIYMVIFGTGIFVFMLSLIFCCYFISKLRNQAQSERYGYKEVVLKGDAKKLQLYGQTCAVCLEDFKGKDELGVLPCQHAFHRKCLVKWLEVRCVCPMCNKPIASPSEATQNIGILLDELV
On to B3, for which the “Percent Infected R1” value worked out at 90.3% and the “Z score R1” value worked out at 0.02.

B4: RNFT2: human RING type E3 ligase expressed from lentiviral vector (protein, UniProt Q96EX2 1-444, looked up)
E3 ubiquitin-protein ligase …: MWLFTVNQVLRKMQRRHSSNTDNIPPERNRSQALSSEASVDEGGVFESLKAEAASPPALFSGLSGSLPTSSFPSSLVLGSSAGGGDVFIQMPASREEGGGRGEGGAYHHRQPHHHFHHGGHRGGSLLQHVGGDHRGHSEEGGDEQPGTPAPALSELKAVICWLQKGLPFILILLAKLCFQHKLGIAVCIGMASTFAYANSTLREQVSLKEKRSVLVILWILAFLAGNTLYVLYTFSSQQLYNSLIFLKPNLEMLDFFDLLWIVGIADFVLKYITIALKCLIVALPKIILAVKSKGKFYLVIEELSQLFRSLVPIQLWYKYIMGDDSSNSYFLGGVLIVLYSLCKSFDICGRVGGVRKALKLLCTSQNYGVRATGQQCTEAGDICAICQAEFREPLILLCQHVFCEECLCLWLDRERTCPLCRSVAVDTLRCWKDGATSAHFQVY
For B4, the “Percent Infected R1” value stood at 86.5% and the “Z score R1” value is recorded as −0.03.

B5: TRIM75: human RING type E3 ligase expressed from lentiviral vector; listed twice (protein, UniProt A6NK02 1-468, looked up)
Tripartite motif-containing …: MAVAAALTGLQAEAKCSICLDYLSDPVTIECGHNFCRSCIQQSWLDLQELFPCPVCRHQCQEGHFRSNTQLGRMIEIAKLLQSTKSNKRKQEETTLCEKHNQPLSVFCKEDLMVLCPLCTQPPDHQGHHVRPIEKAAIHYRKRFCSYIQPLKKQLADLQKLISTQSKKPLELREMVENQRQELSSEFEHLNQFLDREQQAVLSRLAEEEKDNQQKLSANITAFSNYSATLKSQLSKVVELSELSELELLSQIKIFYESENESSPSIFSIHLKRDGCSFPPQYSALQRIIKKFKVEIILDPETAHPNLIVSEDKKRVRFTKRKQKVPGFPKRFTVKPVVLGFPYFHSGRHFWEIEVGDKSEWAIGICKDSLPTKARRPSSAQQECWRIELQDDGYHAPGAFPTPLLLEVKARAIGIFLDYEMGEISFYNMAEKSHICTFTDTFTGPLRPYFYVGPDSQPLRICTGTVCE
In the case of B5, the “Percent Infected R1” value is 66.8% and 89.7%; the “Z score R1” value is −0.277 and 0.01.

B6: RNF2: human RING type E3 ligase expressed from lentiviral vector (protein, UniProt Q99496 2-336, looked up)
E3 ubiquitin-protein ligase …: SQAVQTNGTQPLSKTWELSLYELQRTPQEAITDGLEIVVSPRSLHSELMCPICLDMLKNTMTTKECLHRFCADCIITALRSGNKECPTCRKKLVSKRSLRPDPNFDALISKIYPSRDEYEAHQERVLARINKHNNQQALSHSIEEGLKIQAMNRLQRGKKQQIENGSGAEDNGDSSHCSNASTHSNQEAGPSNKRTKTSDDSGLELDNNNAAMAIDPVMDGASEIELVFRPHPTLMEKDDSAQTRYIKTSGNATVDHLSKYLAVRLALEELRSKGESNQMNLDTASEKQYTIYIATASGQFTVLNGSFSLELVSEKYWKVNKPMELYYAPTKEHK
Take B6: the “Percent Infected R1” value came to 87.4% and the “Z score R1” value was −0.02.

B7: RNF139: human RING type E3 ligase expressed from lentiviral vector (protein, UniProt Q8WU17 2-664, looked up)
E3 ubiquitin-protein ligase …: AAVGPPQQQVRMAHQQVWAALEVALRVPCLYIIDAIFNSYPDSSQSRFCIVLQIFLRLFGVFASSIVLILSQRSLFKFYTYSSAFLLAATSVLVNYYASLHIDFYGAYNTSAFGIELLPRKGPSLWMALIVLQLTFGIGYVTLLQIHSIYSQLIILDLLVPVIGLITELPLHIRETLLFTSSLILTLNTVFVLAVKLKWFYYSTRYVYLLVRHMYRIYGLQLLMEDTWKRIRFPDILRVFWLTRVTAQATVLMYILRMANETDSFFISWDDFWDLICNLIISGCDSTLTVLGMSAVISSVAHYLGLGILAFIGSTEEDDRRLGFVAPVLFFILALQTGLSGLRPEERLIRLSRNMCLLLTAVLHFIHGMTDPVLMSLSASHVSSFRRHFPVLFVSACLFILPVLLSYVLWHHYALNTWLFAVTAFCVELCLKVIVSLTVYTLFMIDGYYNVLWEKLDDYVYYVRSTGSIIEFIFGVVMFGNGAYTMMFESGSKIRAFMMCLHAYFNIYLQAKNGWKTFMNRRTAVKKINSLPEIKGSRLQEINDVCAICYHEFTTSARITPCNHYFHALCLRKWLYIQDTCPMCHQKVYIEDDIKDNSNVSNNNGFIPPNETPEEAVREAAAESDRELNEDDSTDCDDDVQRERNGVIQHTGAAAEEFNDDTD
For the molecule B7, the “Percent Infected R1” value is 77.5% and the “Z score R1” value is given as −0.14.

B8: RNF111: human RING type E3 ligase expressed from lentiviral vector (protein, UniProt Q6ZNA4 1-994, looked up)
E3 ubiquitin-protein ligase …: MSQWTPEYNELYTLKVDMKSEIPSDAPKTQESLKGILLHPEPIGAAKSFPAGVEMINSKVGNEFSHLCDDSQKQEKEMNGNQQEQEKSLVVRKKRKSQQAGPSYVQNCVKENQGILGLRQHLGTPSDEDNDSSFSDCLSSPSSSLHFGDSDTVTSDEDKEVSVRHSQTILNAKSRSHSARSHKWPRTETESVSGLLMKRPCLHGSSLRRLPCRKRFVKNNSSQRTQKQKERILMQRKKREVLARRKYALLPSSSSSSENDLSSESSSSSSTEGEEDLFVSASENHQNNPAVPSGSIDEDVVVIEASSTPQVTANEEINVTSTDSEVEIVTVGESYRSRSTLGHSRSHWSQGSSSHASRPQEPRNRSRISTVIQPLRQNAAEVVDLTVDEDEPTVVPTTSARMESQATSASINNSNPSTSEQASDTASAVTSSQPSTVSETSATLTSNSTTGTSIGDDSRRTTSSAVTETGPPAMPRLPSCCPQHSPCGGSSQNHHALGHPHTSCFQQHGHHFQHHHHHHHTPHPAVPVSPSFSDPACPVERPPQVQAPCGANSSSGTSYHEQQALPVDLSNSGIRSHGSGSFHGASAFDPCCPVSSSRAAIFGHQAAAAAPSQPLSSIDGYGSSMVAQPQPQPPPQPSLSSCRHYMPPPYASLTRPLHHQASACPHSHGNPPPQTQPPPQVDYVIPHPVHAFHSQISSHATSHPVAPPPPTHLASTAAPIPQHLPPTHQPISHHIPATAPPAQRLHPHEVMQRMEVQRRRMMQHPTRAHERPPPHPHRMHPNYGHGHHIHVPQTMSSHPRQAPERSAWELGIEAGVTAATYTPGALHPHLAHYHAPPRLHHLQLGALPLMVPDMAGYPHIRYISSGLDGTSFRGPFRGNFEELIHLEERLGNVNRGASQGTIERCTYPHKYKKVTTDWFSQRKLHCKQDGEEGTEEDTEEKCTICLSILEEGEDVRRLPCMHLFHQVCVDQWLITNKKCPICRVDIEAQLPSES
With B8, the “Percent Infected R1” value came to 84.2% and the “Z score R1” value is recorded as −0.06.

B9: RNF25: human RING type E3 ligase expressed from lentiviral vector; listed twice (protein, UniProt Q96BH1 1-459, looked up)
E3 ubiquitin-protein ligase …: MAASASAAAGEEDWVLPSEVEVLESIYLDELQVIKGNGRTSPWEIYITLHPATAEDQDSQYVCFTLVLQVPAEYPHEVPQISIRNPRGLSDEQIHTILQVLGHVAKAGLGTAMLYELIEKGKEILTDNNIPHGQCVICLYGFQEKEAFTKTPCYHYFHCHCLARYIQHMEQELKAQGQEQEQERQHATTKQKAVGVQCPVCREPLVYDLASLKAAPEPQQPMELYQPSAESLRQQEERKRLYQRQQERGGIIDLEAERNRYFISLQQPPAPAEPESAVDVSKGSQPPSTLAAELSTSPAVQSTLPPPLPVATQHICEKIPGTRSNQQRLGETQKAMLDPPKPSRGPWRQPERRHPKGGECHAPKGTRDTQELPPPEGPLKEPMDLKPEPHSQGVEGPPQEKGPGSWQGPPPRRTRDCVRWERSKGRTPGSSYPRLPRGQGAYRPGTRRESLGLESKDGS
modifications: lentiviral expression
For the molecule B9, the “Percent Infected R1” value is 90.6% and 89.2%; the “Z score R1” value was 0.03 and 0.01.

B10: RNF146: human RING type E3 ligase expressed from lentiviral vector (protein, UniProt Q9NTX7 1-359, looked up)
E3 ubiquitin-protein ligase …: MMAGCGEIDHSINMLPTNRKANESCSNTAPSLTVPECAICLQTCVHPVSLPCKHVFCYLCVKGASWLGKRCALCRQEIPEDFLDKPTLLSPEELKAASRGNGEYAWYYEGRNGWWQYDERTSRELEDAFSKGKKNTEMLIAGFLYVADLENMVQYRRNEHGRRRKIKRDIIDIPKKGVAGLRLDCDANTVNLARESSADGADSVSAQSGASVQPLVSSVRPLTSVDGQLTSPATPSPDASTSLEDSFAHLQLSGDNTAERSHRGEGEEDHESPSSGRVPAPDTSIEETESDASSDSEDVSAVVAQHSLTQQRLLVSNANQTVPDRSDRSGTDRSVAGGGTVSVSVRSRRPDGQCTVTEV
In the case of B10, the “Percent Infected R1” value was found to be 89.7% and the “Z score R1” value is 0.01.
